What all share (test): Crosslinking/co-immunoprecipitation/mass spectrometry (TMT quantitative proteomics) to identify irisin receptors
Common to all, as to type: binding

The target of assay [1] is T1, MLO-Y4 cell surface proteins (Mus musculus, UniProt Q99LC5).
T1 construct: endogenous in cells; host or cells: MLO-Y4
T1 sequence (Q99LC5 20-333): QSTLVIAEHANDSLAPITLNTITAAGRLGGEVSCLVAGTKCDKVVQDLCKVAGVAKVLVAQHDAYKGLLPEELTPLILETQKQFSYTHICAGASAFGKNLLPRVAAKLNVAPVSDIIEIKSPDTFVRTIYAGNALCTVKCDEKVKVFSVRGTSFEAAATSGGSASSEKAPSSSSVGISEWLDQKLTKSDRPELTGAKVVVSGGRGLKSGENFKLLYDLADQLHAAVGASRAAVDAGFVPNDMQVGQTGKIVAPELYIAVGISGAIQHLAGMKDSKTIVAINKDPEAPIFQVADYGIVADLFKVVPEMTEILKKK
The conditions noted are these: co-precipitated protein Etfa (ETFA_MOUSE). Put shortly: (§1)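 Mouse MLO-Y4 cells were switched to serum-free FreeStyle medium for 4 h, chilled, then exposed to 10 nM His-tagged irisin (or adipsin as control) for 20 min. Cells were crosslinked with 1.5 mM DTSSP (30 min, ice), and bound proteins were pulled down on Ni-NTA and eluted with 250 mM imidazole. Eluates were separated by SDS-PAGE, trypsin-digested in gel, TMT 6-plex labelled and quantified by MS3-based LC-MS/MS on an Orbitrap Fusion Lumos.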

Assay [2] has as its target T2, MLO-Y4 cell surface proteins (Mus musculus, UniProt P60843).
T2 construct: endogenous in cells; host or cells: MLO-Y4
The conditions noted are these: co-precipitated protein Eif4a1 (IF4A1_MOUSE). Put shortly: as §1

For assay [3], the target named is T3, MLO-Y4 cell surface proteins (Mus musculus, UniProt P97360).
T3 construct: endogenous in cells; host or cells: MLO-Y4
T3 sequence (P97360 1-485): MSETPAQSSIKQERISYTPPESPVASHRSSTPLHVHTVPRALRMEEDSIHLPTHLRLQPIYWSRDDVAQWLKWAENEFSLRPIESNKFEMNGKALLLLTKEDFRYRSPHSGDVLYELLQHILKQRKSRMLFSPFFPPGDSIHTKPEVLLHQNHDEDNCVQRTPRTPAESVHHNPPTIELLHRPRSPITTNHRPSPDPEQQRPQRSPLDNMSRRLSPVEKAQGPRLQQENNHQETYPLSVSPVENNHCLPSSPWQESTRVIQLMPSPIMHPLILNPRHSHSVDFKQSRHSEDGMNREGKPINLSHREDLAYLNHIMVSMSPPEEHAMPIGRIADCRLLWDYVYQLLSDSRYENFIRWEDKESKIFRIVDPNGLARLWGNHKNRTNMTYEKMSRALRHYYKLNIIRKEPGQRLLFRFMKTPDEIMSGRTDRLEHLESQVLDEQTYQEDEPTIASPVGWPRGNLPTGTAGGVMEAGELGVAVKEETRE
The conditions noted are these: co-precipitated protein Etv6 (ETV6_MOUSE). Put shortly:
as §1

Assay [4] deals with T4, MLO-Y4 cell surface proteins (Mus musculus, UniProt Q8VCI5).
T4 construct: endogenous in cells; host or cells: MLO-Y4
T4 sequence (Q8VCI5 1-299): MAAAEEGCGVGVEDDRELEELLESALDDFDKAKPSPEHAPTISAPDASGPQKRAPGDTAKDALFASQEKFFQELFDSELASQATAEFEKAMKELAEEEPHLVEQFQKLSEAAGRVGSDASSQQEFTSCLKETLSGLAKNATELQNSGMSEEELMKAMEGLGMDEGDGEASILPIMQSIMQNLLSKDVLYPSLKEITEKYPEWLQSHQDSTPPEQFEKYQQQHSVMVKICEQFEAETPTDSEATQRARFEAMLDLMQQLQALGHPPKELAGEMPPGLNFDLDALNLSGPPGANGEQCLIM
The conditions noted are these: co-precipitated protein Pex19 (PEX19_MOUSE). In outline:
as §1

T2 sequence (P60843 whole entry): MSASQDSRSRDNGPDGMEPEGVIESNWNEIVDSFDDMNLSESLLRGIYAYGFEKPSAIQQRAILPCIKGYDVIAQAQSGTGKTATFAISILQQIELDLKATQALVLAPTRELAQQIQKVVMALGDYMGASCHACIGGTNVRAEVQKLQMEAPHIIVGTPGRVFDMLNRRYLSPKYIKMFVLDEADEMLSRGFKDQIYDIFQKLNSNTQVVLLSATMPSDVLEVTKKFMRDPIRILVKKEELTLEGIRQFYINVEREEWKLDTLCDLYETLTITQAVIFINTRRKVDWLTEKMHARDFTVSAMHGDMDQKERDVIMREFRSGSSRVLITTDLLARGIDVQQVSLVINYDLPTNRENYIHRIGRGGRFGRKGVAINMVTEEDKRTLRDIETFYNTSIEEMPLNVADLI

B1: irisin: secreted cleaved form of FNDC5; recombinant human/mouse irisin with C-terminal his tag produced in HEK293 cells (protein)
chain: DSPSAPVNVTVRHLKANSAVVSWDVLEDEVVIGFAISQQKKDVRMLRFIQEVNTTTRSCALWDLEEDTEYIVHVQAISIQGQSPASEPVLFKTPREAEKMASKNKDEVTMKE
modifications: left off: small tags and cut ends
notes: secreted cleaved form of FNDC5; recombinant human/mouse irisin with C-terminal his tag produced in HEK293 cells
For the molecule B1, the TMT signal-to-noise ratio is listed as 44.9816 in assay [1], 17.0483 in assay [2], 74.6472 in assay [3] and 23.3696 in assay [4]. Also, the “irisin/adipsin TMT signal-to-noise ratio” value amounted to 0.561 in assay [1], 0.125 in assay [2], 0.544 in assay [3] and 0.386 in assay [4].

The record behind these values is patent publication US20210063414A1, “METHODS FOR PREVENTING AND/OR TREATING BONE LOSS CONDITIONS BY MODULATING IRISIN” (Dana-Farber Cancer Institute, Inc., priority 2018, published 2021).
